# In PMC7488863, “Overexpression of transcription factor SlWRKY28 improved the tolerance of Populus davidiana × P. bolleana to alkaline salt stress”:
# Columns and labels:
# GST-SlWRKY28 [1] = biological target: T1, GST-SlWRKY28 (Salix linearistipularis, UniProt A0A4D6JIT6 1-474); test: EMSA; EMSA/gel-shift binding buffer (Beyotime kit, 5x stock, 2 uL per 10 uL reaction), 25 C, 20 min; salt and pH not stated; settings: protein: recombinant; tags: N-terminal GST (pGEX-6p-3); label: biotin (both probe strands); blunt
# T1 sequence (A0A4D6JIT6 entry or part of it): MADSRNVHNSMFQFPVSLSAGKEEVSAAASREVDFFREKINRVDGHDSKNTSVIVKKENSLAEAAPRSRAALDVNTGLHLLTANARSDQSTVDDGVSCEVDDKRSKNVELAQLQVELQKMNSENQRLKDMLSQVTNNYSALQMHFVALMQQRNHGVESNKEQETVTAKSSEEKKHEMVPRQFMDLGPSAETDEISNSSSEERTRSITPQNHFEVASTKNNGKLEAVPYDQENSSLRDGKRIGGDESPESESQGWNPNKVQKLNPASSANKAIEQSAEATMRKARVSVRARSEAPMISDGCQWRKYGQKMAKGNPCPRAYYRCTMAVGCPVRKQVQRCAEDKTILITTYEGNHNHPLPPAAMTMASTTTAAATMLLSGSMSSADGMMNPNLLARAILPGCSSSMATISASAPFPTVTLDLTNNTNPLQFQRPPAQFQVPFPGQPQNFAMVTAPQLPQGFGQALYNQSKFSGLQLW
# GST-SlWRKY28 [2] = biological target: T1, GST-SlWRKY28; test: competition; 10x and 50x unlabeled probe against Biotin-Pr; complex signal weak with cold probe; EMSA/gel-shift binding buffer (Beyotime kit, 5x stock, 2 uL per 10 uL reaction), 25 C, 20 min; salt and pH not stated; settings: protein: recombinant; tags: N-terminal GST (pGEX-6p-3); blunt
Binder,binding result (GST-SlWRKY28 [1]),binding result (GST-SlWRKY28 [2])
W-box probe (Biotin-Pr) (dsDNA) DNA 1: GGAACTTGACCTTGACCTTAGGGCTGCAGGAATTCG DNA 2: CGAATTCCTGCAGCCCTAAGGTCAAGGTCAAGTTCC,binds,
W-box cold probe (Cold-Pr) (dsDNA) DNA 1: GGAACTTGACCTTGACCTTAGGGCTGCAGGAATTCG DNA 2: CGAATTCCTGCAGCCCTAAGGTCAAGGTCAAGTTCC,,binds
